How the values were obtained:
[1] = biological target: BG505 NFL-TD+CC2-D4K_L555P (HIV-1 BG505 (clade A)); assay: ELISA, His-captured trimer
[2] = biological target: BG505 NFL-TD+CC2-D4K_I559P w/rEK (HIV-1 BG505 (clade A)); assay: ELISA, His-captured trimer
[3] = biological target: 16055 NFL-TD+CC2-D4K_I559P (HIV-1 16055 (clade C)); assay: ELISA, His-captured trimer
[4] = biological target: 16055 NFL-TD+CC2-D4K_I559P w/rEK (HIV-1 16055 (clade C)); assay: ELISA, His-captured trimer
[5] = biological target: BG505 NFL (I559P) parental (HIV-1 BG505 (clade A)); assay: ELISA, His-captured trimer
[6] = biological target: 16055 NFL-CC2 (HIV-1 16055 (clade C)); assay: ELISA, His-captured trimer
[7] = biological target: 16055 NFL-L555P (HIV-1 16055 (clade C)); assay: ELISA, His-captured trimer
[8] = biological target: 16055 NFL-Q563P (HIV-1 16055 (clade C)); assay: ELISA, His-captured trimer
[9] = biological target: BG505 NFL-CC2 (HIV-1 BG505 (clade A)); assay: ELISA, His-captured trimer
[10] = biological target: 16055 NFL-TD+CC2-D4K_L555P w/rEK (HIV-1 16055 (clade C)); assay: ELISA, His-captured trimer
[11] = biological target: JRFL NFL-CC2 (HIV-1 JRFL (clade B)); assay: ELISA, His-captured trimer
[12] = biological target: BG505 NFL-L555P (HIV-1 BG505 (clade A)); assay: ELISA, His-captured trimer
[13] = biological target: BG505 NFL-TD+CC2-D4K_L555P w/rEK (HIV-1 BG505 (clade A)); assay: ELISA, His-captured trimer
[14] = biological target: 16055 NFL-TD+CC2-D4K_L555P (HIV-1 16055 (clade C)); assay: ELISA, His-captured trimer
[15] = biological target: BG505 NFL-TD+CC2-D4K_I559P (HIV-1 BG505 (clade A)); assay: ELISA, His-captured trimer
[16] = biological target: 16055 NFL (I559P) parental (HIV-1 16055 (clade C)); assay: ELISA, His-captured trimer
[17] = biological target: BG505 NFL-N554P (HIV-1 BG505 (clade A)); assay: BLI, IgG captured, trimer as analyte
[18] = biological target: BG505 NFL-TD+CC2-D4K_L555P (HIV-1 BG505 (clade A)); assay: BLI, IgG captured, trimer as analyte
[19] = biological target: 16055 NFL-TD+CC2-D4K_I559P (HIV-1 16055 (clade C)); assay: BLI, IgG captured, trimer as analyte
[20] = biological target: 16055 NFL-Q562P (HIV-1 16055 (clade C)); assay: BLI, IgG captured, trimer as analyte
[21] = biological target: BG505 NFL (I559P) parental (HIV-1 BG505 (clade A)); assay: BLI, IgG captured, trimer as analyte
[22] = biological target: 16055 NFL-CC2 (HIV-1 16055 (clade C)); assay: BLI, IgG captured, trimer as analyte
[23] = biological target: 16055 NFL-L555P (HIV-1 16055 (clade C)); assay: BLI, IgG captured, trimer as analyte
[24] = biological target: 16055 NFL-Q563P (HIV-1 16055 (clade C)); assay: BLI, IgG captured, trimer as analyte
[25] = biological target: BG505 NFL-CC2 (HIV-1 BG505 (clade A)); assay: BLI, IgG captured, trimer as analyte
[26] = biological target: BG505 NFL-L555P (HIV-1 BG505 (clade A)); assay: BLI, IgG captured, trimer as analyte
[27] = biological target: BG505 NFL-S553P (HIV-1 BG505 (clade A)); assay: BLI, IgG captured, trimer as analyte
[28] = biological target: BG505 NFL-Q563P (HIV-1 BG505 (clade A)); assay: BLI, IgG captured, trimer as analyte
[29] = biological target: 16055 NFL-TD+CC2-D4K_L555P (HIV-1 16055 (clade C)); assay: BLI, IgG captured, trimer as analyte
[30] = biological target: BG505 NFL-TD+CC2-D4K_I559P (HIV-1 BG505 (clade A)); assay: BLI, IgG captured, trimer as analyte
[31] = biological target: BG505 NFL-Q562P (HIV-1 BG505 (clade A)); assay: BLI, IgG captured, trimer as analyte

## PGT128 (antibody)
[1]
  EC50: 0.041 µg/mL
[2]
  EC50: 0.036 µg/mL
[3]
  EC50: 0.055 µg/mL
[4]
  EC50: 0.08 µg/mL
[5]
  EC50: 0.039 µg/mL
[6]
  EC50: 0.135 µg/mL
[7]
  EC50: 0.056 µg/mL
[8]
  EC50: 0.068 µg/mL
[9]
  EC50: 0.035 µg/mL
[10]
  EC50: 0.071 µg/mL
[11]
  EC50: 0.04 µg/mL
[12]
  EC50: 0.021 µg/mL
[13]
  EC50: 0.037 µg/mL
[14]
  EC50: 0.05 µg/mL
[15]
  EC50: 0.036 µg/mL

## 2G12 (antibody)
[1]
  EC50: 0.027 µg/mL
[16]
  EC50: 2.34 µg/mL
[2]
  EC50: 0.031 µg/mL
[3]
  EC50: 0.043 µg/mL
[4]
  EC50: 0.105 µg/mL
[5]
  EC50: 0.029 µg/mL
[6]
  EC50: 0.056 µg/mL
[7]
  EC50: 0.051 µg/mL
[8]
  EC50: 0.066 µg/mL
[9]
  EC50: 0.025 µg/mL
[10]
  EC50: 0.11 µg/mL
[11]
  EC50: 0.022 µg/mL
[12]
  EC50: 0.022 µg/mL
[13]
  EC50: 0.021 µg/mL
[14]
  EC50: 0.038 µg/mL
[15]
  EC50: 0.024 µg/mL

## PG16 (antibody)
[1]
  EC50: 0.215 µg/mL
[2]
  EC50: 0.336 µg/mL
[3]
  EC50: 0.123 µg/mL
[4]
  EC50: 0.19 µg/mL
[5]
  EC50: 0.144 µg/mL
[6]
  EC50: 0.089 µg/mL
[7]
  EC50: 0.121 µg/mL
[8]
  EC50: 0.102 µg/mL
[9]
  EC50: 0.143 µg/mL
[10]
  EC50: 0.122 µg/mL
[11]
  EC50: 0.216 µg/mL
[12]
  EC50: 0.101 µg/mL
[13]
  EC50: 0.307 µg/mL
[14]
  EC50: 0.115 µg/mL
[15]
  EC50: 0.206 µg/mL
[17]
  Kd: 14 nM
[18]
  Kd: 70 nM
  koff: 0.0057 s⁻¹
  kon: 81000 M⁻¹ s⁻¹
[19]
  Kd: 23 nM
  koff: 0.001 s⁻¹
  kon: 43000 M⁻¹ s⁻¹
[20]
  Kd: 2.8 nM
  koff: 0.0005 s⁻¹
  kon: 170000 M⁻¹ s⁻¹
[21]
  Kd: 15 nM
[22]
  Kd: 15 nM
  koff: 0.0009 s⁻¹
  kon: 61000 M⁻¹ s⁻¹
[23]
  Kd: 6.9 nM
  koff: 0.0009 s⁻¹
  kon: 130000 M⁻¹ s⁻¹
[24]
  Kd: 1.7 nM
  koff: 0.0003 s⁻¹
  kon: 190000 M⁻¹ s⁻¹
[25]
  Kd: 43 nM
  koff: 0.0033 s⁻¹
  kon: 78000 M⁻¹ s⁻¹
[26]
  Kd: 7.8 nM
[27]
  Kd: 7.2 nM
[28]
  Kd: 12 nM
[29]
  Kd: 16 nM
  koff: 0.0007 s⁻¹
  kon: 43000 M⁻¹ s⁻¹
[30]
  Kd: 59 nM
  koff: 0.0048 s⁻¹
  kon: 81000 M⁻¹ s⁻¹
[31]
  Kd: 15 nM

## PGT151 (antibody)
[1]
  EC50: 0.073 µg/mL
[2]
  EC50: 0.091 µg/mL
[4]
  EC50: 0.041 µg/mL
[5]
  EC50: 0.062 µg/mL
[7]
  EC50: 0.048 µg/mL
[8]
  EC50: 0.047 µg/mL
[9]
  EC50: 0.059 µg/mL
[10]
  EC50: 0.056 µg/mL
[11]
  EC50: 0.139 µg/mL
[12]
  EC50: 0.058 µg/mL
[13]
  EC50: 0.085 µg/mL
[15]
  EC50: 0.065 µg/mL
[17]
  Kd: 1.4 nM
[18]
  Kd: 3.7 nM
  koff: 0.0014 s⁻¹
  kon: 370000 M⁻¹ s⁻¹
[19]
  Kd: 8.7 nM
  koff: 0.0069 s⁻¹
  kon: 790000 M⁻¹ s⁻¹
[20]
  Kd: 9.2 nM
  koff: 0.0016 s⁻¹
  kon: 180000 M⁻¹ s⁻¹
[21]
  Kd: 5.5 nM
[22]
  Kd: 21 nM
  koff: 0.0053 s⁻¹
  kon: 250000 M⁻¹ s⁻¹
[23]
  Kd: 5.7 nM
  koff: 0.0008 s⁻¹
  kon: 150000 M⁻¹ s⁻¹
[24]
  Kd: 8.9 nM
  koff: 0.0016 s⁻¹
  kon: 180000 M⁻¹ s⁻¹
[25]
  Kd: 1.9 nM
  koff: 0.0006 s⁻¹
  kon: 290000 M⁻¹ s⁻¹
[26]
  Kd: 1.4 nM
[27]
  Kd: 3.3 nM
[28]
  Kd: 1.7 nM
[29]
  Kd: 13 nM
  koff: 0.0055 s⁻¹
  kon: 45000 M⁻¹ s⁻¹
[30]
  Kd: 2.3 nM
  koff: 0.0008 s⁻¹
  kon: 340000 M⁻¹ s⁻¹
[31]
  Kd: 1.9 nM
